Molecular target: rat Gβ1 with Hexa-His-tag (in purified Gαsβ1γ2) (rat, UniProt P54311 2-340)
Assay: cross-linking

binding result: binds
B1: bovine Gαs short subunit (in purified Gαsβ1γ2) (natural protein)
chain: MGCLGNSKTEDQRNEEKAQREANKKIEKQLQKDKQVYRATHRLLLLGAGESGKSTIVKQMRILHVNGFNGDGEKATKVQDIKNNLKEAIETIVAAMSNLVPPVELANPENQFRVDYILSVMNVPDFDFPPEFYEHAKALWEDEGVRACYERSNEYQLIDCAQYFLDKIDVIKQDDYVPSDQDLLRCRVLTSGIFETKFQVDKVNFHMFDVGGQRDERRKWIQCFNDVTAIIFVVASSSYNMVIREDNQTNRLQEALNLFKSIWNNRWLRTISVILFLNKQDLLAEKVLAGKSKIEDYFPEFARYTTPEDATPEPGEDPRVTRAKYFIRDEFLRISTASGDGRHYCYPHFTCAVDTENIRRVFNDCRDIIQRMHLRQYELL
